From publication PMC10203562

Key:
Test in all cases: SPR; Biacore 8K+; anti-human IgG (Fc) amine-coupled to CM5 captures the antibody (10-25 RU); PCSK9 50 nM to 12 pM flowed over, 240 s association, 1800 s dissociation; Langmuir 1:1 global fit; duplicates
[1] = target: bococizumab variant PFGQ
[2] = target: bococizumab variant PERQ
[3] = target: bococizumab variant SEGQ
[4] = target: bococizumab variant PENW
[5] = target: bococizumab variant PELW
[6] = target: bococizumab variant AEGQ
[7] = target: bococizumab variant AEPA
[8] = target: bococizumab variant EDGM
[9] = target: bococizumab variant SELW
[10] = target: bococizumab variant PEGQ
[11] = target: bococizumab

- Kd [1]: 0.25 nM
- Kd [2]: 0.25 nM
- Kd [3]: 0.35 nM
- Kd [4]: 0.24 nM
- Kd [5]: 0.19 nM
- Kd [6]: 0.19 nM
- Kd [7]: 0.21 nM
- Kd [8]: 0.66 nM
- Kd [9]: 0.27 nM
- Kd [10]: 0.2 nM
- Kd [11]: 0.25 nM
Substance: proprotein convertase substilisin/kexin type 9 (PCSK9) (from UniProt Q8NBP7 153-692) (natural protein)
